From publication PMC9951844 (Nature Communications, 2023)
Where a chain is given by its changes, count along the chain named.

Assays:
[1] = biological target: SARS-CoV-2 Omicron BA.1 (B.1.1.529) RBD (SARS-CoV-2 Omicron BA.1 (B.1.1.529), strain)
SARS-CoV-2 wildtype S1 = SARS-CoV-2 wildtype S1 (SARS-CoV-2 wildtype (Wuhan), UniProt P0DTC2)
[2] = biological target: SARS-CoV-2 Beta (B.1.351) S1 (SARS-CoV-2 Beta (B.1.351), strain)
[3] = biological target: SARS-CoV-2 Delta (B.1.617.2) S1 (SARS-CoV-2 Delta (B.1.617.2), strain)
[4] = biological target: SARS-CoV-2 Gamma (P.1) S1 (SARS-CoV-2 Gamma (P.1), strain)
[5] = biological target: SARS-CoV-2 Kappa (B.1.617.1) spike ECD (SARS-CoV-2 Kappa (B.1.617.1), strain)
[6] = biological target: SARS-CoV-2 Lambda (C.37) RBD (SARS-CoV-2 Lambda (C.37), strain)

Measured: binding result

B1: YB12-269 (antibody, V domains shown)
VH: EVQLVESGGALVRPGGSLRVSCAASGITVNFNYMTWVRQGPGKGLEWVASIYPGGSTFYADSVKGRFTISRDNSKNTLYLQMTSVRDEDTALYYCARDEGPGMDVWGQGTTVTVSS
VL: QSVLTQPPSVSGAPGQRVTISCTGYSSNIEAGSDVHWYQQPPGTAPKLLIYNNNNRPSGVPDRFSGSKSGTSASLAITGLQPGDEGDYYCQSYDSRLSGYVFGTGTKVTVL
binds: all assays above

B2: YB12-267 (antibody, V domains shown)
VH: KVQLVESGGGLIQPGGSLRLSCAASGLTVSSNYMNWVRQAPGKGLEWVSLIFSGGSTYYADSVKGRFTISRDYSKNTLYLQMNSLRAEDTAVYYCARDLMEVGGMDVWGQGTTVTVSS
VL: QSVLTQPPSASGTPGQRVTISCSGSSSYIGSIYWYQQLPGAAPKLLVFSDHKRPSGVPDRFSGSKSGTSASLAISGLQSEDEAGYYCATWDDSLNGYVFGTGTKVTVL
binds: all assays above

B3: YB13-217 (antibody, V domains shown)
V domain 1: QVQLVESGGGVVQPGKSLRLSCTASGFTFSSHSMHWVRQAPGKGLDWVAVISFDGTKNYFADSLKGRFSVSRDNSRNTLYLQMNSLRVEDTAVYYCAREEGGSRMYHYYYGMDVWGQGTTVTVSS
V domain 2: QSVLTQPPSASGTPGQRVTISCSGSSSNIGTNTVNWYQQLPGTAPKLLIYTNNQRPSGVPDRFSGSKSGTSASLAIGGLQSEDEADYYCAAWDDSVSSYVFGTGTQVTAL
binds: all assays above

B4: YB12-187 (antibody, V domains shown)
VH: EVQLVESGGGLVKPGGSLRLSCAASGFIFSTYSMNWVRQAPGKGLEWVSSISSFSTYIYYADSVKGRFTISRDNAKNSLYLQMNSLRAEDTAVYYCASGQMYSGSYPSGDYFDYWGQGTLVTVSS
VL: LSVLTQPPSVSGAPGQRVTISCTGSSSNIGADYDVHWYQQLPGTAPKLLIYGNTNRPSGVPDRFSGSKSGTSASLAITGLQAEDEAHYYCQSYDTSLSGVVFGGGTKLTVL
binds: all assays above

B5: YB13-209 (antibody, V domains shown)
VH: EVQLVESGGGLVKPGGSLKLSCAASGFSFVNAWMSWVRQAPGKGLEWVGRIKDKIDGGTTDYAAPVKGRFSISRDDSKNMLYLQMTSLKTEDTAVYYCTTGYNWHYGIEYWGQGTLVTVSS
VL: DIQMTQSPSSLSASVGDRVTVTCRASQSINSYLNWYQQKPGKAPKLLIYAASSLQSGVPSRFSGSGSGTDFTLTISSLQAEDFATYYCQQSYSTPDTFGQGTKLEIK
binds: all assays above

B6: YB12-266 (antibody, V domains shown)
VH: EVQLVESGGGLIQPGGSLRLSCAASGLTVSSNYMSWVRQAPGKGLEWVSLIYSGGTTSYADSVKGRFTISRDNSKNTLYLQMNSLRVEDTAVYYCARDLVVYGMDVWGQGTTVTVSS
VL: AIQLTQSPSSLSASVGDRVTITCRASQGISSYLAWYQQKPGKAPKLLIYAASTLQSGVPSRFSGSGSGTDFTLTISSLQPEDFATYYCQLLNSYPLTFGGGTKVEIK
not listed: [1]
binds: all other assays above

B7: YB13-221 (antibody, V domains shown)
VH: EVQLVESGGGLVQPGGSLRLSCAASGFIVSSRYMSWVRQAPGKGLEWVSVIYSDGRSYYADSVKGRFIISRDNFKNALYLQMNSLRAEDTAVYYCARDSPYRTGWFLGQSDAFDIWGQGTMVTVSS
VL: DIQMTQSPSTLSASVGDRVTITCRASQSISSWLAWYQQKPGKAPNLLIYKASSLESGVPSRFSASGSGTEFTLTISSLQPDDFATYYCQQYNSYPPSFGQGTKVEIK
not listed: [1]
binds: all other assays above

B8: YB12-202 (antibody, V domains shown)
VH: EVQLVQSGAEVKKPGESLKISCKGSGYSFISYWIVWVRQMPGKGLEWMGIIYPGDSDTRYSPSFHGQVTISADKSFSTAYLQWSSLKASDTAMYYCATTPHLYGGADYWGQGTLVTVSS
VL: not shown
binds: all assays above

B9: YB9-102 (antibody, V domains shown)
VH: EVQLLESGGGLVQPGGSLRLSCTASGFTFRYYAMTWVRQAPGKGLEWVSVIIGSGGDTYYADSVKGRFTISRDNSKNTLYLQMDSLRAEDTAVYYCATGELELGTCYFDYWGQGTLVTVSS
VL: DIQMTQSPSSVSASVGDRVTITCRASQGISSWLAWYQQKPGEAPKLLISAASSLQSGVPSRFSGSGSETDFTLTISSVQPEDFATYYCQQANSFPQAFGQGTKVEIK
binds: all assays above

B10: YB12-203 (antibody, V domains shown)
VH: QIQLQQSGPGLVEPSQTLSLTCAISGDSVSSISAAWNWIRQSPSRGLEWLGRTYYRSKWYNDYAVSVKSRITINPDTSKNQFSLHLNSVTPEDTAVYYCARDHLRWDIVATSLEAFDIWGQGTMVTVSS
VL: DIVMTQSPDSLAVSLGERATINCKSSQSVLFSSNNKNSLAWYQQKPGQPPKLLIYWASTRESGVPDRFSGSGSGTDFTLTISSLQAEDVAVYYCQQYHSSLLYTFGQGTKLEIK
not listed: [1] | [4]
binds: all other assays above

B11: YB9-112 (antibody, V domains shown)
VH: EVRLVESGGGLIQPGGSLRLSCAASGLIVSSNYMTWVRQAPGKGLEWVSVIYSGGSTFYADSVKGRFTISRDNSKNTLFLQMSSLRAEDTAIYYCARDLDYYGMDVWGQGTTVTVSS
VL: DIQLTQSPSFLSASVGDRVTITCRASQGVASYLAWYQQKPGKAPKLLIYAASTLQSGVPSRFSGSGSGTEFTLTISSLQPEDFATYYCQHLNSYPPITFGQGTRLEIK
not listed: [1]
binds: all other assays above

B12: YB12-195 (antibody, V domains shown)
VH: B11 VH with R3Q, L27F, T35N, F79Y, S83N, I92V, D100Q, Y101R, Y102D
VL: SYVLTQPPSVSVAPGKTARITCGGNNIGSKNVHWYQQKPGQAPVLVIYYDSDRPSGIPERFSGSNSGNTATLTVSRVEAGDEADYYCQLWDSSSDHVVFGGGTKLTVL
not listed: [1] | [2]
binds: all other assays above

B13: YB13-275 (antibody, V domains shown)
V domain 1: QITLKESGPRLVKPTQTLTLTCTFSGFSLATAGMSVGWIRQPPGKALEWLALIYWDDDDRYSPSLKSRLTITKDTSRNQVVLTMTNMDPVDTATYYCIHPRFYSDPSGYYFIWGQGTMVTVSS
V domain 2: SYELTQPPSVSVSPGQTARITCSGDALAKQYAYWYQQKPGQAPVQVMYKDGERPSGIPERFSGSKSGTTVTLTISAVQAEDEADYFCQSADNSGFYVFGTGTQVTVL
not listed: [1]
binds: all other assays above

B14: YB13-291 (antibody, V domains shown)
V domain 1: QITLKESGPTLVKPTQTLTLTCTFSGFSLNTAGVAVGWIRQPPGKAREWLALIYWDDDQRYSPSLESRLTITKDTSKNLVVLTMTNMDPVDTATYYCAHPRYFSDNSAYYWIWGQGTMVTVSS
V domain 2: SYDLTQPPSVSVSPGQTATISCSGDALPKQYVYWYQQKPGQAPVLVIYKDSERPSGIPERFSGSNSGTTVTLTISGVQAEDEAEYYCQSADSSGFYVFGSGTQVTVL
not listed: [1]
binds: all other assays above

B15: YB13-216 (antibody, V domains shown)
VH: QVQLVESGGGVVQPGSSLRISCAASGFTFSSYGMHWVRQGPGKGLEWVAVIWDDGSGKHYAVSVKGRFTISRDNSKNTLYLQMNSLRVEDTAVYYCARDEGTTVTFFDYWGQGTLVTVSS
VL: DIQMTQSPSSLSASVGDRITITCRASQSIRTYLNWYQQKPGKAPKLLIYTSSSLQSGVPSRFSGSGSGTDFTLTISSLQPEDFATYFCQQSYSTPPWTFGQGTKVEIK
binds: all assays above
